Laboratory results taken from paper PMC8485043.
Several values for one entry are separate records, joined by “and”; a condition that tells them apart may be missing. Equal values may be shown once.

Target: VDAC-ΔC, C-terminally truncated variant of Neurospora crassa VDAC lacking residues 269-283 (β19) (Neurospora crassa)
Assay: SEC-MALS; protein folded in DM, no sterol; UV, MALS and differential refractive index detectors, protein-conjugate analysis in ASTRA

stoichiometry N: 2 and 4
Substance: VDAC-ΔC, C-terminally truncated variant of Neurospora crassa VDAC lacking residues 269-283 (β19) (domain or fragment)
